Measurements: patent US20230348564A1, “ANTI-CANCER PROTEINS” (UNICHEM LABORATORIES LTD, priority 2020, published 2023)

Legend:
[1] = system: KB; assay: cell based in vitro cytotoxicity/anti-proliferation assay (summary); design: species or system Human; settings: Cervical
Procedure: The percentage cytotoxicity was calculated using the statistical tool.

[2] = system: EA.hy926 (Human endothelial cells); assay: Cell migration by scratch assay in endothelial cells; assay type: cell-based
Procedure: EA.hy296 cells were counted using hemocytometer and plated in 6-well plates at the density of 0.5×10^6 cells/well. The cells were incubated overnight under growth conditions as described above so as to allow cell recovery and exponential growth. Following overnight incubation, a small linear scratch (representative wound) was created in the confluent monolayer (middle of the well) by gently scraping with sterile 200 μl micropipette tip. Photomicrographs of the scratch were taken at 0 h (Initial time point). Cells were rinsed with serum free DMEM and grouped for treatment in two different serum conditions:
• Baseline control: Cells+DMEM • Positive/Validation control: Baseline control+Positive Control. Test: Baseline control+Test Item
• Baseline control: Cells+DMEM+1% FBS • Positive/Validation control: Baseline control+Positive Control. • Test: Baseline control+Test item
Photomicrographs of the scratch were taken at 24 h-72 h time points. The photomicrographs obtained in the above step were analyzed for quantitative assessment of area of wound closure using ImageJ tool software. Percentage migration with respect to untreated cells at different time points was calculated.

[3] = system: A549 (Human lung carcinoma); assay: Calcein AM cytotoxicity assay; settings: 48h
Procedure: (§1) All the cancer cell lines were procured from National Centre for Cell Science, Pune (India). The cell lines were maintained under conditions as described in Table 21 below. The cell lines were sub-cultured by trypsinization followed by splitting the cell suspension into fresh flasks and supplementing with fresh culture medium.
(§2) All the cell lines were grown in specified media at 37° C. with 95% Humidity and […].
(§3) The cells were trypsinized, counted by Trypan blue method in Neuebauer's Chamber and plated in wells of flat bottom 96-well plate (dark walled plate, flat bottom) at the density corresponding to 10×10^3 cells/well/180 μl medium.
(§4) Following overnight incubation, the cells were treated with test item (20 μL) at concentrations ranging from 2.5-80 μg/mL, so that the total volume in each well is 200 μL.
(§5) The cells were incubated with the test items or positive control for a time period of 48h. Following incubation, the cell cytotoxicity was estimated using Calcein AM Cell Viability Assay Kit from R&D systems (Cat No. 4892-010-K).
(§6) Fluorescence was measured at 485 nm (excitation/528 run (emission) spectra using Synergy HT micro plate reader.
(§7) Percentage cytotoxicity wrt untreated cells was calculated using formula:
(§8) Cytotoxicity=[(RFUuntreated−RFUsample)/RFUuntreated]*100
(§9) RFU: relative fluorescence units
(§10) IC50 value was calculated using Graph-Pad Prism version 4.01 software.

[4] = system: AGS (Human stomach adenocarcinoma); assay: Calcein AM cytotoxicity assay; settings: 48h
Procedure: as §1, §2, §3, §4, §5, §6, §7, §8, §9, §10

[5] = system: HT-29 (Human Colorectal adenocarcinoma); assay: Calcein AM cytotoxicity assay; settings: 48h
Procedure: as §1, §2, §3, §4, §5, §6, §7, §8, §9, §10

[6] = system: Human Primary mammary epithelial (HMEC) cells; assay: Calcein AM cytotoxicity assay; settings: 48h
Procedure: as §1, §2, §3, §4, §5, §6, §7, §8, §9, §10

[7] = system: KB (Human cervical carcinoma); assay: Calcein AM cytotoxicity assay; settings: 48h
Procedure: as §1, §2, §3, §4, §5, §6, §7, §8, §9, §10

[8] = system: MCF-10A (Human mammary epithelial cells); assay: Calcein AM cytotoxicity assay; settings: 48h
Procedure: as §1, §2, §3, §4, §5, §6, §7, §8, §9, §10

[9] = system: MCF-7 (Human breast adenocarcinoma); assay: Calcein AM cytotoxicity assay; settings: 48h
Procedure: as §1, §2, §3, §4, §5, §6, §7, §8, §9, §10

[10] = system: PA-1 (Human Ovary carcinoma); assay: Calcein AM cytotoxicity assay; settings: 48h
Procedure: as §1, §2, §3, §4, §5, §6, §7, §8, §9, §10

[11] = system: PBMCs (Peripheral blood mononuclear cells); assay: Calcein AM cytotoxicity assay; settings: 48h
Procedure: as §1, §2, §3, §4, §5, §6, §7, §8, §9, §10

[12] = system: PC-3 (Human Prostate Cancer); assay: Calcein AM cytotoxicity assay; settings: 48h
Procedure: as §1, §2, §3, §4, §5, §6, §7, §8, §9, §10

[13] = system: SK-Mel-28 (Human melanoma); assay: Calcein AM cytotoxicity assay; settings: 48h
Procedure: as §1, §2, §3, §4, §5, §6, §7, §8, §9, §10

[14] = system: SKOV-3 (Human Ovary adenocarcinoma); assay: Calcein AM cytotoxicity assay; settings: 48h
Procedure: as §1, §2, §3, §4, §5, §6, §7, §8, §9, §10

[15] = system: SW620 (Human Colorectal adenocarcinoma); assay: Calcein AM cytotoxicity assay; settings: 48h
Procedure: as §1, §2, §3, §4, §5, §6, §7, §8, §9, §10

[16] = system: SiHa (Human cervix squamous cell carcinoma); assay: Calcein AM cytotoxicity assay; settings: 48h
Procedure: as §1, §2, §3, §4, §5, §6, §7, §8, §9, §10

[17] = system: THP-1 (Human acute monocytic leukemia); assay: Calcein AM cytotoxicity assay; settings: 48h
Procedure: as §1, §2, §3, §4, §5, §6, §7, §8, §9, §10

[18] = system: ZR-75-1 (Human ductal carcinoma); assay: Calcein AM cytotoxicity assay; settings: 48h
Procedure: as §1, §2, §3, §4, §5, §6, §7, §8, §9, §10

[19] = system: MDA-MB-453
[20] = system: MIAPaCa-2

B1: SEQ ID NO. 2: recombinant lectin; variant of the S. rolfsii lectin amino acid sequence (reported as Rec-2 in WO 2010/095143) (protein)
chain: TYKITVRVYQTNPDAFFHPVEKTVWKYANGGTWTITDDQHVLTMGGSGTSGTLRFHADNGESFTATFGVHNYKRWCDIVTNLAADETGMVINQQYYSQKNREEARERQLSNYQVKNAKGRNFQIVYTEAEGNDLHANLIIG
modifications: In vitro synthesis
% Cytotoxicity [1]: 64.0% | inhibition of endothelial cells migration as compared to control (DMEM) ([2]; 20 μg/mL to 100 μg/mL, after 72 hrs): 71.5% to 82.4% | Inhibition of migration with respect to untreated ([2]; 20 μg/mL, 24 h, 1% FBS): 0.8% | Inhibition of migration with respect to untreated ([2]; 20 μg/mL, 24 h, SFM): 74% | Inhibition of migration with respect to untreated ([2]; 20 μg/mL, 48 h, 1% FBS): 5.4% | Inhibition of migration with respect to untreated ([2]; 20 μg/mL, 48 h, SFM): 81.1% | Inhibition of migration with respect to untreated ([2]; 20 μg/mL, 72 h, SFM): 82.4% | Inhibition of migration with respect to untreated ([2]; 40 μg/mL, 24 h, 1% FBS): 28.5% | Inhibition of migration with respect to untreated ([2]; 40 μg/mL, 24 h, SFM): 80.5% | Inhibition of migration with respect to untreated ([2]; 40 μg/mL, 48 h, 1% FBS): 35.3% | Inhibition of migration with respect to untreated ([2]; 40 μg/mL, 48 h, SFM): 82.3% | Inhibition of migration with respect to untreated ([2]; 40 μg/mL, 72 h, SFM): 82.2% | Inhibition of migration with respect to untreated ([2]; 50 μg/mL, 24 h, 1% FBS): 30.0% | Inhibition of migration with respect to untreated ([2]; 50 μg/mL, 24 h, SFM): 79.9% | Inhibition of migration with respect to untreated ([2]; 50 μg/mL, 48 h, 1% FBS): 42.9% | Inhibition of migration with respect to untreated ([2]; 50 μg/mL, 48 h, SFM): 81% | Inhibition of migration with respect to untreated ([2]; 50 μg/mL, 72 h, SFM): 79.5% | Inhibition of migration with respect to untreated ([2]; 60 μg/mL, 24 h, 1% FBS): 50.1% | Inhibition of migration with respect to untreated ([2]; 60 μg/mL, 24 h, SFM): 82.0% | Inhibition of migration with respect to untreated ([2]; 60 μg/mL, 48 h, 1% FBS): 63.5% | Inhibition of migration with respect to untreated ([2]; 60 μg/mL, 48 h, SFM): 77.3% | Inhibition of migration with respect to untreated ([2]; 60 μg/mL, 72 h, SFM): 76.0% | Inhibition of migration with respect to untreated ([2]; 80 μg/mL, 24 h, 1% FBS): 65.6% | Inhibition of migration with respect to untreated ([2]; 80 μg/mL, 24 h, SFM): 80.5% | Inhibition of migration with respect to untreated ([2]; 80 μg/mL, 48 h, 1% FBS): 77.8% | Inhibition of migration with respect to untreated ([2]; 80 μg/mL, 48 h, SFM): 78.2% | Inhibition of migration with respect to untreated ([2]; 80 μg/mL, 72 h, SFM): 74.5% | Inhibition of migration with respect to untreated ([2]; 100 μg/mL, 24 h, 1% FBS): 73.8% | Inhibition of migration with respect to untreated ([2]; 100 μg/mL, 24 h, SFM): 55.7% | Inhibition of migration with respect to untreated ([2]; 100 μg/mL, 48 h, 1% FBS): 73.1% | Inhibition of migration with respect to untreated ([2]; 100 μg/mL, 48 h, SFM): 73.2% | Inhibition of migration with respect to untreated ([2]; 100 μg/mL, 72 h, SFM): 71.5% | IC50 [3]: >80 µg/mL | IC50 [4]: 42.6 µg/mL | IC50 [5]: 42.0 µg/mL | IC50 [6]: >80 µg/mL | IC50 [7]: 18.4 µg/mL | IC50 [8]: >80 µg/mL | IC50 [9]: >80 µg/mL | IC50 [10]: 20.3 µg/mL | IC50 [11]: >80 µg/mL | IC50 [12]: >80 µg/mL | IC50 [13]: >80 µg/mL | IC50 [14]: >80 µg/mL | IC50 [15]: >80 µg/mL | IC50 [16]: >80 µg/mL | IC50 [17]: >80 µg/mL | IC50 [18]: >80 µg/mL | % Cytotoxicity [19]: 46.6% | % Cytotoxicity [20]: 47.5%
